{"source": "paper PMC6088750", "proteins": {"B1": {"name": "Ef CDR-RHD / CoA persulfide reductase (CoAPR) (Enterococcus faecalis OG1RF) (protein)", "chain": "MKIVIIGGVAGGMSAATRLRRLMEDAEIVVMEKGPFVSFANCGLPYYVSGEIAEREQLLVQTPEALKARFNLDVRPHHEVVAIDPIEKVITVKHETEILTEHYDKLILSPGAKPFVPPITGLAEAKNVFSLRNVPDLDQIMTALTPETKRAVVIGAGFIGLEMAENLQKRGLEVTLVEKAPHVLPPLDEEMAAFVKAELSKNNVQVITGQSAVAFEEEGQVIRLEDGQTLASDLTILSVGVQPENTLAVEAGVATGLRGGIVVDEHYQTNQPDIYAVGDAIVVKQQITQEDALISLASPANRQGRQVADVIAGLERKNQGSIGTAIVRVFDLTAASTGLSERAAKAAGLTTAVVHISGKDHAGYYPGATDLQLKLVFHPTTGEIYGAQGIGAKGVDKRIDILATAIKGQLTIFDLPELEFTYAPPFGSAKDPVNMLGYAAMNLVEGLSENVQWYELSNELAKGAVLLDVRNPAERANGQFKNAVSIPLNELRERLEELDKSTEYIVSCHSGLRSYIAERMLKQAGISAKNLDGAFALYRMVKPEELENV"}}, "substrate": "O=S(O)(O)=S", "assay": "thiosulfate sulfurtransferase initial rates, Michaelis-Menten fit", "type": "biochemical, Enterococcus faecalis", "details": "RHD domain activity; minimal TST activity"}
{"protein": "B1", "values": [{"measurement": "Km", "result": "1000 ± 600", "unit": "µM"}]}
